Data reported in patent publication US20190352354A1.

Molecular target: commercial Trail (TNF-related apoptosis-inducing ligand, TRAIL) (UniProt P50591)
Assay: cell-based or functional assay

commercial Trail (TNF-related apoptosis-inducing ligand, TRAIL), sequence (P50591 114-281 limits assumed): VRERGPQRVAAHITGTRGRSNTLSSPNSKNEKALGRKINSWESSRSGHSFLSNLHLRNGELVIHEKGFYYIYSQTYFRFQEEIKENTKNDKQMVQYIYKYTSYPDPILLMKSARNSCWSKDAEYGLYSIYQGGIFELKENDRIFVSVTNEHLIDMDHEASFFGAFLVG
commercial DR5-Fc fusion protein (R&D Systems), sequence (O14763 52-182): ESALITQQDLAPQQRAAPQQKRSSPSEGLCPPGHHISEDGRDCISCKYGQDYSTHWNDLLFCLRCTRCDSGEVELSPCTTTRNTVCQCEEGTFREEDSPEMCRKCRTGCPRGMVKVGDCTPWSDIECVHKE

commercial DR5-Fc fusion protein (R&D Systems) (from UniProt O14763 52-182)
EC50 of blocking TRAIL-induced apoptosis of HepG2 cells: 0.0276 µg/mL
EC50 of blocking Trail (at EC90) killing of Jurkat cells, MTS/PMS A490-A630: 0.0718 µg/mL
